In patent US20230242902A1, “A HIGHLY ERROR-PRONE […] R[…] FOR TARGETED CONTINUOUS EVOLUTION IN VIVO” (The Regents of the University of California, priority 2017, published 2023):

Tested on: genomic CAN1 gene
Test: Fluctuation tests of the genomic CAN1 gene (POL3 mutator strains)
Type: cell-based, S. cerevisiae
Settings: genomic mutation rate
Experimental: To construct POL3 mutator strains, plasmids were transformed into AH22 encoding wild-type POL3 on a URA3 plasmid or Δmsh6 AH22 encoding wild-type POL3 on a URA3 plasmid. Transformants were expanded in selective SC medium and spot plated on selective SC medium or selective SC medium supplemented with 5-FOA (1 g/L) for plasmid shuffle of the plasmid encoding wild-type POL3 via URA3 counter-selection (Boeke et al., 1984).
Fluctuation tests of the genomic CAN1 gene were performed to determine genomic per-base substitution rates. To minimize propagation of POL3 mutator strains, fluctuation tests were performed directly on colonies from plasmid shuffle plates. For each strain, 48 colonies from plasmid shuffle plates were individually scraped and resuspended in 120 μL 0.9% NaCl. 10 μL from each resuspension was diluted and subject to an event counts measurement via flow cytometry. This was done to identify colonies of similar cell count, because fluctuation tests are only appropriate when final population sizes for all replicates are similar. 24 resuspensions with similar event counts were used for fluctuation tests. […] Colonies were counted from titer plates after 2-4 days and from spot plates after 3-6 days. […]
Fluctuation data were analyzed as described above for URA3 fluctuation data, but with mutation frequency parameters for CAN1 (Lang et al., 2008). […]

B1: pol3-01: proofreading deficient pol3-01 allele encodes POL3 (D321A, E323A) (protein, UniProt P15436 1-1097, looked up, variant D321A E323A)
DNA polymerase delta …: MSEKRSLPMVDVKIDDEDTPQLEKKIKRQSIDHGVGSEPVSTIEIIPSDSFRKYNSQGFKAKDTDLMGTQLESTFEQELSQMEHDMADQEEHDLSSFERKKLPTDFDPSLYDISFQQIDAEQSVLNGIKDENTSTVVRFFGVTSEGHSVLCNVTGFKNYLYVPAPNSSDANDQEQINKFVHYLNETFDHAIDSIEVVSKQSIWGYSGDTKLPFWKIYVTYPHMVNKLRTAFERGHLSFNSWFSNGTTTYDNIAYTLRLMVDCGIVGMSWITLPKGKYSMIEPNNRVSSCQLEVSINYRNLIAHPAEGDWSHTAPLRIMSFAIACAGRIGVFPEPEYDPVIQIANVVSIAGAKKPFIRNVFTLNTCSPITGSMIFSHATEEEMLSNWRNFIIKVDPDVIIGYNTTNFDIPYLLNRAKALKVNDFPYFGRLKTVKQEIKESVFSSKAYGTRETKNVNIDGRLQLDLLQFIQREYKLRSYTLNAVSAHFLGEQKEDVHYSIISDLQNGDSETRRRLAVYCLKDAYLPLRLMEKLMALVNYTEMARVTGVPFSYLLARGQQIKVVSQLFRKCLEIDTVIPNMQSQASDDQYEGATVIEPIRGYYDVPIATLDFNSLYPSIMMAHNLCYTTLCNKATVERLNLKIDEDYVITPNGDYFVTTKRRRGILPIILDELISARKRAKKDLRDEKDPFKRDVLNGRQLALKISANSVYGFTGATVGKLPCLAISSSVTAYGRTMILKTKTAVQEKYCIKNGYKHDAVVVYGDTDSVMVKFGTTDLKEAMDLGTEAAKYVSTLFKHPINLEFEKAYFPYLLINKKRYAGLFWTNPDKFDKLDQKGLASVRRDSCSLVSIVMNKVLKKILIERNVDGALAFVRETINDILHNRVDISKLIISKTLAPNYTNPQPHAVLAERMKRREGVGPNVGDRVDYVIIGGNDKLYNRAEDPLFVLENNIQVDSRYYLTNQLQNPIISIVAPIIGDKQANGMFVVKSIKINTGSQKGGLMSFIKKVEACKSCKGPLRKGEGPLCSNCLARSGELYIKALYDVRDLEEKYSRLWTQCQRCAGNLHSEVLCSNKNCDIFYMRVKVKKELQEKVEQLSKW
mutational increase: 58 fold
